Results published in patent US20250221936A1, “ENGINEERED HEMICHANNELS, ENGINEERED VESICLES, AND USES THEREOF” (VIRGINIA TECH INTELLECTUAL PROPERTIES, INC., priority 2018, published 2025).
Entries after “also recorded” stand apart in the source; their conditions may differ.

System: Cx43 S368 phosphorylation
Assay: Western blot of Cx43-pS368 in peptide-infused LV
Set-up: species or system mouse
Conditions: peptide infused 20 minutes; relative to vehicle control
Procedure: Protein samples from all related experiments (PKC and EDC cross-linking assays and Westerns on heart lysates) were processed in lithium dodecyl sulfate sample loading buffer (Bio-Rad, 1610737 CA), heated at 95° C. for 5 minutes. Samples from PKC and cross-linking assays were loaded on 18% Tris-Glycine Stain-Free gels (Bio-Rad, 5678073 CA); samples from heart lysates were loaded on 10% Tris-Glycine Stain-Free el (Bio-Rad: 5678033 CA), resolved by SDS-PAGE, transferred to PVDF FL membrane on a Turbo Transfer System (Bio-Rad, 1704155 CA). alpha CT1 eluted from cross-linking reactions was detected on blots against biotin with HRP-NeutrAvidin (ThermoFisher, 31001, MA). Signals were detected by HR-based chemiluminescence (ThermoFisher, 34095, MA) and exposed to ECL Chemidoc (Bio-Rad, 1708280 CA) and digitized using Image Lab software (Bio-Rad, 1709692 CA). Detailed methods have also been previously described^11, 13, 14 Surface Plasmon Resonance
Male, 3-month-old, body weight 25±5 g C57BL/6 mice were used for this study and obtained from Charles River. Animals were randomly assigned to experimental groups and Left ventricular (LV) function was measured and myocardial ischemia-reperfusion injury (I/R) was induced as previously described^23. Briefly, 15 minutes after the injection of heparin at a dose of 200U/10 g body weight, the mouse was anesthetized by inhalation of isoflurane vapor and subjected to cervical dislocation upon the cessation of respiration. Thoracotomy was immediately performed and the heart excised. The heart was arrested in ice-cold Krebs-Henseleit (KH) buffer (in mM: 25 NaHCO3, 0.5 EDTA, 5.3 KCl, 1.2 MgSO4, 0.5 pyruvate, 118 NaCl, 10 glucose, 2.5 CaCl2). The aorta was isolated and cannulated in a Langendorff perfusion system. The heart was then perfused at a constant pressure of 75 mmHg with KH buffer, which was continually bubbled with 5% CO2/95% O2 at 37° C. Effluent from the Thebesian veins was drained by a thin polyethylene tube (PE-10) pierced through the apex of the LV. […] After a 30-minute stabilization period, a balloon volume (BV) generating an LV end-diastolic-pressure (EDP) of 0 mmHg, was determined for the heart. The BV was then increased stepwise up through 1, 2, 5, 8, 10, 12, 15, 18, 20, 25, 30 μl increments of 1-5 μl and contractile performance were recorded for 10 seconds at each step. […] Data was recorded and analyzed using PowerLab 4/35 (ADInstruments, PL3504, CO) and LabChart V7 (ADInstruments, CO). […] Baseline function (determined by EDP at about 8-10 mmHg) was recorded for 5 minutes. […] BV was retaken through the stepwise sequence of 1-5 μl increments between 1 and 30 μl, with contractile performance again being recorded for 10 seconds at each step. Cardiac LV function was recorded throughout the procedure. […]

| Sequence | Cx43 pS368 in LV samples |
| --- | --- |
| RQPKIWFPNRRKPWKK RPRPAALAI (RQPKIWFPNRRKPWKKRPRPAALAI) [M1 AALAI] | no propensity to upregulate S368 phosphorylation |
| RQPKIWFPNRRKPWKKRPRPDDLAI [M3 DDLAI] | no propensity to upregulate S368 phosphorylation |
| RQPKIWFPNRRKPWKKRPRPDDLE [alpha CT1-I] | significant increases in phosphorylation |
| RQPKIWFPNRRKPWKKRPRPDDLEI [alpha CT1] | significant increases in phosphorylation |

Biological target: T1, ZO-1 PDZ2 (Homo sapiens, UniProt Q07157)
T1 construct: the second of the three PDZ (PDZ2) domains of ZO-1; made in house; host or cells: E. coli BL21
T1 sequence (Q07157 186-264 limits assumed): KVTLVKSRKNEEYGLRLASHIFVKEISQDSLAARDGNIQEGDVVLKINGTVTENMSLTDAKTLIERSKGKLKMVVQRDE
Assay: Protein thermal shift assay, ZO-1 PDZ2
Format: binding
Conditions: 500 μg/ml protein, 25-100 μM peptide
Procedure: Thermal stability of recombinant GST-PDZ2 or Cx43 CT in the presence or absence of peptides was determined in a 96-well format. Each assay well was composed of 500 μg/ml protein, 25-100 μM of each peptide in PBS buffer, pH7.4. All assays were performed independently six times. Samples were generally prepared in 96-well plates at final volumes of 20 μL. The fluorescent dye SYPRO Orange (5000× concentrate in DMSO, ThermoFisher, S6650) was added to a final concentration of 8X. Reactions were run on QuantStudio 6 Flex Real-Time PCR system (Applied Biosystems, part of Life Technologies Corporation, CA) according to the manufacturer's recommendations using a melt protocol in 0.05-degree/see increments from 25° C. to 95° C. The Reporter Dye was “ROX” and quencher Dye and passive reference were selected as “None” for the melt curve according to manufacturer's instructions. The data were analyzed using Protein Thermal Shift™ Software v1.3 package (Applied Biosystems, CA).

| Sequence | PDZ2 melt temperature (Tm) |
| --- | --- |
| RQPKIWFPNRRKPWKK RPRPAALAI (RQPKIWFPNRRKPWKKRPRPAALAI) [M1 AALAI] | did not alter the melt temperature of PDZ2 |
| RQPKIWFPNRRKPWKKRPRPDDLAI [M3 DDLAI] | evidence of significant interaction with its ZO-1-binding domain |
| RQPKIWFPNRRKPWKKRPRPDDLE [alpha CT1-I] | PDZ2 interaction incompetent |
| RQPKIWFPNRRKPWKKRPRPDDLEI [alpha CT1] | significantly increase the Tm of; also recorded: increased the melt temperature of PDZ2 in a dose-dependent manner |

Same assay, conditions: 500 μg/ml protein, 25-100 μM peptide; listed as M3

| Sequence | PDZ2 melt temperature (Tm) |
| --- | --- |
| RQPKIWFPNRRKPWKKRPRPDDLAI [M3 DDLAI] | significantly increase the Tm of |
